Assay results from patent publication US20080254032A1 (published 2008).
Where two headings read alike, the source gives them in different places.

T1: human M-CSF (human, UniProt P09603 33-190)
T1 chain: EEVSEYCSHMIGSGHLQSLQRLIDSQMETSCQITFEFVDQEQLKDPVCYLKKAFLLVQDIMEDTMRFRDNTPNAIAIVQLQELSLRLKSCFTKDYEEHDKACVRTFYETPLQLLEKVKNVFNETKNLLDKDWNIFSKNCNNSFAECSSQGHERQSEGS

B1: monoclonal antibody 252 (antibody, human IgG2, kappa, V domains shown)
VH: QVQLVESGGGLVKPGGSLRLSCAASGFTFSDYYMSWIRQAPGKGLEWISYISGSGSTIYYADSVKGRFTISRDNAKNSLYLQMNSLRAEDTAVYHCARALGGMDVWGQGTTVTVSS
VL: DIQMTQSPSSLSASVGDRVTITCRASQSISGFLNWYQQKPGKAPKLLIYATSSLQSGVPFRFSGSGSGTDFTLTISSLQPEDFATYYCQQSYSVPFTFGPGTKVDIKR
B2: monoclonal antibody 3.8.3 (antibody, human IgG2, kappa, V domains shown)
VH: QVQLVESGGGLVKPGGSLRLSCAASGFTFSDYYMSWIRQAPGKGLEWFSYISSSGSTIYYADSVKGRFTISRDNAKNSLSLQMNSLRAEDTAVYYCARGLTGDYWGQGTLVTVSS
VL: DIQMTQSPSSVSASVGDRVTISCRASQDISGWLAWYQQKPGKAPKLLISATSSLHSGVPSRFSGSGSGTDFTLTISSLQPEDFATYYCQQTNSFPFTFGPGTKVDIKR
B3: monoclonal antibody 2.7.3 (antibody, human IgG4, kappa, V domains shown)
VH: QVQLVESGGGVVQPGRSLRLSCAASGFTFSSYGMHWVRQAPGKGLEWVAFIWYDGSNKYYADSVKGRFTISRDNSKNTLYLQMNSLRAEDTAVYYCARGYRVYFDYWGQGTLVTVSS
VL: DIQMTQSPSSVSASVGDRVTITCRASQDISSWLAWYQRKPGKAPKLQIYAASSLESGVPSRFNGSGSGTDFTLSISSLQPEDFATYYCQQTNSFPLTFGGGTKVEIKR
B4: monoclonal antibody 1.120.1 (antibody, human IgG2, kappa, V domains shown)
VH: QVQLVQSGAEVKKPGASVKVSCKASGYTFTSYGISWVRQAPGQGLEWMGWISAYNGNTNYAQKLQDRVTMTTDTSTTTAYMELRSLRSDDTAVYYCARRAYGANFFDYWGQGTLVTVSS
VL: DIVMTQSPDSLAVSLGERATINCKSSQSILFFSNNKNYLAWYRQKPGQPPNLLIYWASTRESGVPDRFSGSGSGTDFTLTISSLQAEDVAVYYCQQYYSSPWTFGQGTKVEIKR
B5: monoclonal antibody 9.14.4I (antibody, human IgG2, kappa)
heavy: QVQLVESGGGLVKPGGSLRLSCAASGFTFSDYYMSWIRQAPGKGLEWVSYISSSGSTIYYADSVKGRFTISRDNAKNSLYLQMNSLRAEDTAVYYCARGLTGDYWGQGTLVTVSSASTKGPSVFPLAPCSRSTSESTAALGCLVKDYFPEPVTVSWNSGALTSGVHTFPAVLQSSGLYSLSSVVTVPSSNFGTQTYTCNVDHKPSNTKVDKTVERKCCVECPPCPAPPVAGPSVFLFPPKPKDTLMISRTPEVTCVVVDVSHEDPEVQFNWYVDGVEVHNAKTKPREEQFNSTFRVVSVLTVVHQDWLNGKEYKCKVSNKGLPAPIEKTISKTKGQPREPQVYTLPPSREEMTKNQVSLTCLVKGFYPSDIAVEWESNGQPENNYKTTPPMLDSDGSFFLYSKLTVDKSRWQQGNVFSCSVMHEALHNHYTQKSLSLSPGK
light: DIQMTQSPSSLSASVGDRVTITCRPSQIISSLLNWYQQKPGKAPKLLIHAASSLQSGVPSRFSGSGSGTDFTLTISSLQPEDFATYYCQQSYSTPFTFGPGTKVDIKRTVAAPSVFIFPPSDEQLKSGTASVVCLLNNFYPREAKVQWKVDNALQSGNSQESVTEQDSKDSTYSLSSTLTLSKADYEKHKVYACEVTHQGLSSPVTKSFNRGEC
B6: monoclonal antibody 9.7.2IF (antibody, human IgG2, kappa, V domains shown)
VH: QVQLVESGGGLVKPGGSLRLSCAASGFTFSDYYMSWIRQAPGKGLEWVSYISSSGSTIYYADSVKGRFTISRDNAKNSLYLQMNSLRAEDTAVYYCARRIGGMDVWGQGTTVTVSS
VL: DIQMTQSPSSLSASVGDRVTITCRASQSISGFLIWYQQRPGKAPKLLIYATSSLQSGVPSRFSGSGSGTDFTLTISSLQPEDFATYYCQQSYSTPFTFGPGTKVDIKR
B7: monoclonal antibody 9.14.4 (antibody, human IgG4, kappa)
heavy: QVQLVESGGGLVKPGGSLRLSCAASGFTFSDYYMSWIRQAPGKGLEWVSYISSSGSTIYYADSVKGRFTISRDNAKNSLYLQMNSLRAEDTAVYYCARGLTGDYWGQGTLVTVSSASTKGPSVFPLAPCSRSTSESTAALGCLVKDYFPEPVTVSWNSGALTSGVHTFPAVLQSSGLYSLSSVVTVPSSSLGTKTYTCNVDHKPSNTKVDKRVESKYGPPCPSCPAPEFLGGPSVFLFPPKPKDTLMISRTPEVTCVVVDVSQEDPEVQFNWYVDGVEVHNAKTKPREEQFNSTYRVVSVLTVLHQDWLNGKEYKCKVSNKGLPSSIEKTISKAKGQPREPQVYTLPPSQEEMTKNQVSLTCLVKGFYPSDIAVEWESNGQPENNYKTTPPVLDSDGSFFLYSRLTVDKSRWQEGNVFSCSVMHEALHNHYTQKSLSLSPGK
light: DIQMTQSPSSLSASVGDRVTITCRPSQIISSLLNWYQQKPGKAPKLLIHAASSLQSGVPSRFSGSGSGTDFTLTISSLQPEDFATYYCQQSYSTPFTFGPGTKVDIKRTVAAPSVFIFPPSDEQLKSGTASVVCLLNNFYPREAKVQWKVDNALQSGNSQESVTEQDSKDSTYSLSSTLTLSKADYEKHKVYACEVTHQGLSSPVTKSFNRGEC
B8: monoclonal antibody 8.10.3 (antibody, human IgG2, kappa, V domains shown)
VH: EVQLVESGGGLVQPGGSLRLSCAASGFTFSSFSMTWVRQAPGKGLEWVSYISSRSSTISYADSVKGRFTISRDNAKNSLYLQMNSLRDEDTAVYYCARDPLLAGATFFDYWGQGTLVTVSS
VL: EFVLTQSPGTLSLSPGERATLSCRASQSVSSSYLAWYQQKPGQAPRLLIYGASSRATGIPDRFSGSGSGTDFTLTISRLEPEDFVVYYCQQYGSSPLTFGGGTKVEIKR
notes: Human antibody from hybridoma 8.10.3
B9: monoclonal antibody 9.7.2 (antibody, human IgG4, kappa, V domains shown)
VH: QVQLVESGGGLVKPGGSLRLSCAASGFTFSDYYMSWIRQAPGKGLEWVSYISSSGSTIYYADSVKGRFTISRDNAKNSLYLQMNSLRAEDTAVYYCARRIGGMDVWGQGTTVTVSS
VL: DIQMTQSPSSLSASVGDRVTITCRASQSISGFLIWYQQRPGKAPKLLIYATSSLQSGVPLRFSGSESGTDFTLTISSLQPEDFATYYCQQSYSTPFTFGPGTKVDIKR
B10: monoclonal antibody 88 (antibody, human IgG2, kappa, V domains shown)
VH: EVQLVESGGGLVQPGGSLRLSCAASGFTFSSYWMSWVRQAPGKGLEWVANIKQDGSEKYYVDSVKGRFTISRDNAKNSLYLQMNSLRAEDTAVYYCAPGIAAAGRAYWGQGTLVTVSS
VL: DIQMTQSPSSLSASVGDRVTITCRPSQDISSYLNWYQQKPGKAPKLLIYAASSLQSGVPLRFSGSGSGTDFTLTISSLQPEDFATYYCQQSYSTPFTFGPGTKVDIKR
B11: monoclonal antibody 100 (antibody, human IgG2, kappa, V domains shown)
VH: EVQLLESGGGLVQPGGSLRLSCAASGFTFSSYAMSWVRQAPGKGLEWVSAISGRGGRTYFADSVKGRFTISRDNSKNTLYLQMNSLRAEDTAVYFCAVEGYSGRYGFFDYWGQGTLVTVSS
VL: EIVMTQSPATLSVSPGERATLSCRASQSVSSNLAWYQQKPGQAPRLLIYGASTRASGIPDRISGSGSGTEFTLIISSLQSEDFAVYYCQQSNNWPFTFGPGTKVDIKR

Tests used:
human M-CSF [1] = biological target: T1, human M-CSF; assay: cell-based or functional assay
human M-CSF [2] = biological target: T1, human M-CSF; assay: SPR, BIACORE 3000, 25 C, M-CSF amine-coupled on CM5 chip, antibody injected, 1:1 global fit
human M-CSF [3] = biological target: T1, human M-CSF; assay: receptor binding inhibition: antibody titrated against 125I-M-CSF binding to c-fms on cells (NIH-3T3/human c-fms or M-NSF-60)
human M-CSF [4] = biological target: T1, human M-CSF; assay: SPR, BIACORE 3000, 25 C, M-CSF amine-coupled on B1 chip, antibody injected, 1:1 global fit
human M-CSF [5] = biological target: T1, human M-CSF; assay: cell-based or functional assay
human M-CSF [6] = biological target: T1, human M-CSF; assay: receptor binding inhibition: antibody titrated against 125I-M-CSF binding to c-fms on cells (NIH-3T3/human c-fms or M-NSF-60)

Binder	Human Whole Blood Monocyte Activation Assay [IC50, M] (human M-CSF [1]) [M]	M-CSF Mouse Monocytic Cell Proliferation Assay [IC50, M] (human M-CSF [1]) [M]	Kd (human M-CSF [2]) [pM]	koff (human M-CSF [2]) [s⁻¹]	IC50 (human M-CSF [3]) [pM]	Kd (human M-CSF [4]) [pM]	Human Whole Blood Monocyte Activation Assay [IC50, M] (human M-CSF [5]) [M]	M-CSF Mouse Monocytic Cell Proliferation Assay [IC50, M] (human M-CSF [5]) [M]	IC50 (human M-CSF [6]) [pM]
B1	8.67e-10	1.86e-10	13.3	1.03e-06	747	–	–	–	–
B2	8.6e-11	7.3e-11	–	–	70	400	–	–	–
B3	7.15e-10	1.96e-10	–	–	308	4700	–	–	–
B4	8.85e-10	1.99e-10	–	–	157	5400	–	–	–
B5	–	–	–	–	–	–	2.49e-10	2.02e-10	297
B6	–	–	–	–	–	–	1.12e-09	7.37e-10	529
B7	–	–	–	–	–	–	6.48e-10	2.02e-10	41
B8	–	–	–	–	–	–	2.8e-10	4.13e-10	1500
B9	–	–	–	–	–	–	1.98e-10	7.37e-10	6
B10	5.8e-10	2.31e-10	1330	7.3e-05	445	–	–	–	–
B11	1.53e-10	7.44e-10	20	1.7e-05	1250	–	–	–	–
